According to publication doi:10.1101/2025.06.25.661518:

How the values were obtained:
[1] = test system: BALF2 wild type (Epstein-Barr virus (EBV)); experiment: fluorescence anisotropy; settings: not in material (Methods absent); anisotropy titrations in triplicate
[2] = test system: BALF2 Δ52 (Epstein-Barr virus (EBV)); experiment: fluorescence anisotropy; settings: not in material (Methods absent); anisotropy titrations in triplicate

16-mer ssDNA gave a Kd [1] of 232 nM and a Kd [2] of 1040 nM.
